# Test results taken from patent US10100120B2, “Antibody which specifically binds to human CRTH2” (KYOWA HAKKO KIRIN CO., LTD, priority 2015, dated 2018).
# T1: mutated human CRTH2 with amino acid substitution (Homo sapiens, UniProt Q9Y5Y4, N185A/Y183A/Y184A)
# T1 construct: inserting genes encoding various mutants with amino acid substitution obtained by deleting termination codons; expressed in transfected cells; host or cells: CHO-S cells (Lifetechnologies), transient (phmAG1-MNLinker vector)
# T1 sequence (Q9Y5Y4 1-395 Y183A/Y184A/N185A): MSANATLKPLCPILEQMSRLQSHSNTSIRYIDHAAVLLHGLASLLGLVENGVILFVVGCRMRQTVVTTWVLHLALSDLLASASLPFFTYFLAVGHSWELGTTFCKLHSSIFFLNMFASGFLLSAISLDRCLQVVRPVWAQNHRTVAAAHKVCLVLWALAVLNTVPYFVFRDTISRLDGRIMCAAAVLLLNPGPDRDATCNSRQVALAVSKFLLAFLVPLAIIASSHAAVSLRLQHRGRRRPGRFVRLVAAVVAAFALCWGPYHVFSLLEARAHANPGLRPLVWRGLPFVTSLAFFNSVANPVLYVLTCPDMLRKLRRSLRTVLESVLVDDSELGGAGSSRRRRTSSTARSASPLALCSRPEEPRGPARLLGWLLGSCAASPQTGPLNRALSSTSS
# T2: mutated human CRTH2 with amino acid substitution (Homo sapiens, UniProt Q9Y5Y4, D177A/G178A/R179A)
# T2 construct: inserting genes encoding various mutants with amino acid substitution obtained by deleting termination codons; expressed in transfected cells; host or cells: CHO-S cells (Lifetechnologies), transient (phmAG1-MNLinker vector)
# T2 sequence (Q9Y5Y4 1-395 D177A/G178A/R179A): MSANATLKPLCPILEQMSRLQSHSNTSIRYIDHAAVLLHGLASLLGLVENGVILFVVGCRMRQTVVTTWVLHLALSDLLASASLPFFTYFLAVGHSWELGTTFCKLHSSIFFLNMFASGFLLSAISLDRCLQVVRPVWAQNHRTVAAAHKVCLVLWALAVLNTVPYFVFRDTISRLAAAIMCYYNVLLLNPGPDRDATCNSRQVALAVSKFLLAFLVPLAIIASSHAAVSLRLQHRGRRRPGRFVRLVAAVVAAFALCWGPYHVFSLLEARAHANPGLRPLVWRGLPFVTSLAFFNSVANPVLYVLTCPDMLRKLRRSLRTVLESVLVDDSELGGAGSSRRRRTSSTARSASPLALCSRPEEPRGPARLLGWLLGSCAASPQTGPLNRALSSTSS
# Assays:
# [1] = biological target: T1, mutated human CRTH2 with amino acid substitution; assay: Epitope analysis using CHO-S cells which express mutated human CRTH2 with amino acid substitution; format: binding; settings: mutant Y183A, Y184A, and N185A; antibody 10 μg/mL; relative to wild-type = 100%
# Summary of the method: (§1)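 CHO-S cells transiently expressing alanine-substituted human CRTH2 extracellular mutants, C-terminally Azami-Green tagged, 24 h post-transfection. Antibodies at 10 μg/mL, 4 °C 1 h, then Alexa647 anti-IgG secondary 4 °C 1 h; flow cytometry on Azami-Green-positive cells. Reactivity = Alexa647 intensity divided by Azami-Green intensity.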
# [2] = biological target: T2, mutated human CRTH2 with amino acid substitution; assay: as above; format: binding; settings: mutant D177A, G178A, and R179A; antibody 10 μg/mL; relative to wild-type = 100%
# Summary of the method: as §1
molecule,measurement,setting,value
"LV0HV1: humanized Lym2 antibody, VL LV0 (SEQ ID NO: 33), VH HV1 (SEQ ID NO: 51) (antibody, V domains shown) VH: EVQLVESGGGVVQPGRSLRLSCAASGFTFSNYYMAWVRQAPGKGLEWVATISYDGSSTYYRDSVKGRFTISRDNAKNSLYLQMNSLRAEDTATYYCARHRGYYYSGAGYFDYWGQGTMVTVSS VL: DIVMTQTPLSLPVTPGESASISCRSSQSLEYSDGYTYLEWYLQKPGQSPQVLIYGVSNRFSGVPDRFSGSGSGTDFTLKISRVEAEDVGVYYCFQATHDPLTFGQGTKLEIK",reactivity against cells expressing mutated human CRTH2,[1],lost
same,reactivity against cells expressing mutated human CRTH2,[2],lost
